Key:
NRP2 = molecular target: T1, NRP2 (UniProt O60462 23-864, limits assumed); assay: ELISA, VEGF165
T1 construct: Control 'natural receptor'

NRP1 = molecular target: T2, NRP1 (UniProt O14786-2 22-644, limits assumed); assay: ELISA, VEGF165
T2 construct: Control 'natural receptor'; also called neuropilin-1; neuropilin 1

T1 sequence (O60462 23-864 limits assumed): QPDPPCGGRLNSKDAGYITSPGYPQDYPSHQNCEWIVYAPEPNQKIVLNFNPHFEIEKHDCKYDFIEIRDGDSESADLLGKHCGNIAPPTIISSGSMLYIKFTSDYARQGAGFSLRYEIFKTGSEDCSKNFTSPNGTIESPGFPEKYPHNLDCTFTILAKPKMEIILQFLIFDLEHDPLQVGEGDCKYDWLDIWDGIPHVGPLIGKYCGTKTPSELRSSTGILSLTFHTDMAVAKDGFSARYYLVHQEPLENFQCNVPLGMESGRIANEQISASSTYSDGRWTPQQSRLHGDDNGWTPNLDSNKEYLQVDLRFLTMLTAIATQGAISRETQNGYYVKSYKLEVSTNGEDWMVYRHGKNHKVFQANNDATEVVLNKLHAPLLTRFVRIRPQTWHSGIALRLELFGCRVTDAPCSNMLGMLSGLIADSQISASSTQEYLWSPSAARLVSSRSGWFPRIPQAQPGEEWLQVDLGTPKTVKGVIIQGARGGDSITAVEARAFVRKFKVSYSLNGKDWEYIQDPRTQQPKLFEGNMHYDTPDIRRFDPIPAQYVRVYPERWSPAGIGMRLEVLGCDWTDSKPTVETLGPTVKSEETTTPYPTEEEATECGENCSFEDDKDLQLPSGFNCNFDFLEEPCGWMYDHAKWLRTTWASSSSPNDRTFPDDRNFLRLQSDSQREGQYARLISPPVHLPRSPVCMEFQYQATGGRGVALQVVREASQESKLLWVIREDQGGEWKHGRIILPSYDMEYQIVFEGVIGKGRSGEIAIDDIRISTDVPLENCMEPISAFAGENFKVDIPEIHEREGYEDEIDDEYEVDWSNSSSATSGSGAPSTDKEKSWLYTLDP

- Kd (NRP2): 8 nM
- Kd (NRP1): 0.312 nM
B1: VEGF165 (ligand, UniProt P15692-4 27-191, looked up)
chain: APMAEGGGQNHHEVVKFMDVYQRSYCHPIETLVDIFQEYPDEIEYIFKPSCVPLMRCGGCCNDEGLECVPTEESNITMQIMRIKPHQGQHIGEMSFLQHNKCECRPKKDRARQENPCGPCSERRKHLFVQDPQTCKCSCKNTDSRCKARQLELNERTCRCDKPRR
notes: also called VEGFA
